Reference: PMC8094900
Blank lines part the entries; values can stand above or below the substance they belong to.

Experiments:
[1] = biological target: Myrf N-terminal fragment (wild-type mouse Myrf) (mouse); test: cold western blot (SDS-PAGE in a cold chamber); N-terminally Flag-tagged Myrf constructs expressed in Oli-neu cells; SDS-PAGE in a cold condition, membrane probed with Flag antibodies; ratio of trimeric to monomeric N-terminal fragment
[2] = biological target: Myrf-F387S N-terminal fragment; test: cold western blot (cold SDS-PAGE, Flag immunoblot); conditions: Flag-tagged constructs expressed in Oli-neu cells; SDS-PAGE in a cold condition; parent: est. 0.27; read off a plot
[3] = biological target: Myrf-G435R N-terminal fragment; test: cold western blot (cold SDS-PAGE, Flag immunoblot); conditions: Flag-tagged constructs expressed in Oli-neu cells; SDS-PAGE in a cold condition; parent: est. 0.27; read off a plot
[4] = biological target: Myrf-L479V N-terminal fragment; test: cold western blot (cold SDS-PAGE, Flag immunoblot); conditions: Flag-tagged constructs expressed in Oli-neu cells; SDS-PAGE in a cold condition; parent: est. 0.27; read off a plot
[5] = biological target: Myrf-Q403H N-terminal fragment; test: cold western blot (cold SDS-PAGE, Flag immunoblot); conditions: Flag-tagged constructs expressed in Oli-neu cells; SDS-PAGE in a cold condition; parent: est. 0.27; read off a plot

Chain of Myrf N-terminal fragment (wild-type mouse Myrf) (Q3UR85 whole entry, the tested form may be a part): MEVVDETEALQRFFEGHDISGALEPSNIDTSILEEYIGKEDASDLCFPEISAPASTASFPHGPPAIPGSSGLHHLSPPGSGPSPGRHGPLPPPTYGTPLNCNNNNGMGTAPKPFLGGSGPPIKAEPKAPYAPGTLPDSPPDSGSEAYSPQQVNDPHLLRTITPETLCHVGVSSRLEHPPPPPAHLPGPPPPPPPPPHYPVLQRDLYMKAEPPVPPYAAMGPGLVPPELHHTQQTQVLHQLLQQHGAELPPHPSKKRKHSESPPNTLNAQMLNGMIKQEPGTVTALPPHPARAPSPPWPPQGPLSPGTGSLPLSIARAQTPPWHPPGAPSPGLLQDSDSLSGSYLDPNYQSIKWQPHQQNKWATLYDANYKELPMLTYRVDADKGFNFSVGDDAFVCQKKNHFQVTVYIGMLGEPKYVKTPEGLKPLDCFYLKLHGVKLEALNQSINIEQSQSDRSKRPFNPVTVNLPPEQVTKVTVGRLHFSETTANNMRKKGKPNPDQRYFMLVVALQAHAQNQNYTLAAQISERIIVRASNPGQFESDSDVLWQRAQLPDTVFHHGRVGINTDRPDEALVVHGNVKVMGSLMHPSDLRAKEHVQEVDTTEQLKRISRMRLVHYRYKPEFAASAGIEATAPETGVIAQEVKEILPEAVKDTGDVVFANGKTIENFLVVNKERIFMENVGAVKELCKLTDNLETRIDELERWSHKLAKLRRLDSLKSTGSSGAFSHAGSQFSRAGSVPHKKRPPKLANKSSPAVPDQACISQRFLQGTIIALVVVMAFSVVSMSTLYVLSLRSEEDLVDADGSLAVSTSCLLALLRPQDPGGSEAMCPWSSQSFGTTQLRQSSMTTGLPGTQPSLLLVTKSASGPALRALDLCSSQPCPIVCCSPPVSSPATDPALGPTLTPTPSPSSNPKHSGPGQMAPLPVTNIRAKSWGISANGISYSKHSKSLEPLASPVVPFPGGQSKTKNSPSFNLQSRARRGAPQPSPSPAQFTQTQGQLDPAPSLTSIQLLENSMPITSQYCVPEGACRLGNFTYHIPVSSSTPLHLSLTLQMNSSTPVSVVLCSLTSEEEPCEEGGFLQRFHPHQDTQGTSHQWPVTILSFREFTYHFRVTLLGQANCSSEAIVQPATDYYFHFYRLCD

stoichiometry N [1]: 3
Substance: Myrf N-terminal fragment (wild-type mouse Myrf) (domain or fragment)

other: Trimer/(Trimer+Monomer) [2]: 0.045
Substance: Myrf N-terminal fragment (wild-type mouse Myrf) F387S

other: Trimer/(Trimer+Monomer) [5]: 0.08
Substance: Myrf N-terminal fragment (wild-type mouse Myrf) Q403H

The next lines start with the substance.

Substance: Myrf N-terminal fragment (wild-type mouse Myrf) G435R
other: Trimer/(Trimer+Monomer) [3]: 0.02

Substance: Myrf N-terminal fragment (wild-type mouse Myrf) L479V
other: Trimer/(Trimer+Monomer) [4]: 0.01
